Test results: the RNAGym collection of RNA variant scans (doi:10.1021/acssynbio.7b00057)

B1: Pistol ribozyme (parent)
chain: GGGUCGUUGUUCCAUAAUCGCGUGGAUAUGGCACGCAAGUUUCUACCGGGCACCGUAAAUGUCCGACUGGAGCCGUUCGGGCGGCUAUAAACAGACCUCAGGCCCGAAGCGUGGCGGCACCUGCCGCCGGUGGUAAAAAAGAUCGGAAGAGCACACGUCU

Variants of: B1
Test: aptazyme ON/OFF ratio, guanine; higher = stronger switching; co-transcriptional cleavage with and without guanine

Variant	aptazyme ON/OFF ratio
U7G U8A G9U U10G U11A C12G C13G	1.05
U7G U8A G9U U10G U11A C12G C13U	1.12
U7G U8A U10A U11A C12G C13A	1.14
U7G U8A U10A U11A C12G C13U	1.46
U7G U8A U10A U11A C12G C13G	1.2
U7G U8A U10A U11C C12A	1.31
U7G U8A U10A U11C C12G	1.26
U7G U8A U10A U11C C12U	1.05
U7G U8A G9U U10C C12G C13G	1.29
U7G U8A G9U U10C C12G C13A	1.28
U7G U8A G9U U10C C12G C13U	1.19
U7G U8A U10C C12A C13A	1.39
U7G U8A U10C C12A C13G	1.27
U7G U8A U10C C12A C13U	1.34
U7G U8A G9U U10G U11G C12A C13U	1.25
U7G U8A G9U U10G U11G C12A C13G	1.09
U7G U8A G9U U10G U11G C12A C13A	1.07
U7G U8A U10A U11G C12G C13A	1.26
U7G U8A U10A U11G C12G C13G	1.11
U7G U8A U10A U11G C12G C13U	1.3
U7G U8A G9U U10G U11G C13G	1.17

Variant	aptazyme ON/OFF ratio
U7G U8A G9U U10G U11G C13U	1.18
U7G U8A G9U U10G U11G C13A	1.3
U7G U8A G9U U11A C12G	1.14
U7G U8A G9U U11A C12A	1.14
U7G U8A G9U U11A C12U	1.17
U7G U8A G9U U10A U11C	1.03
U7G U8A G9U U10A U11G	1.09
U7G U8A G9U U10A U11A	1.46
U7G U8A G9C U11G C13U	1.04
U7G U8A G9C U11G C13G	1.04
U7G U8A U10A U11C C12G C13U	1.18
U7G U8A U10A U11C C12G C13G	1.07
U7G U8A U10A U11C C12G C13A	1.28
U7G U8A G9U U10G U11C C12A C13U	1.11
U7G U8A G9U U10G U11C C12A C13A	1.05
U7G U8A G9U U10G U11C C12A C13G	1.05
U7G U8A G9U U10G U11G C12U C13A	1.04
U7G U8A G9U U10G U11G C12U C13G	1.06
U7G U8A G9U U10G U11G C12U C13U	1.12
U7G U8A G9U U10C U11C C12A C13U	1.09
U7G U8A G9U U10C U11C C12A C13G	1.23

Variant	aptazyme ON/OFF ratio
U7G U8A G9U U10C U11C C12A C13A	1.09
U7G U8A G9U U11G C12A	1.07
U7G U8A G9U U11G C12U	1.23
U7G U8A G9U U11G C12G	1.12
U7G U8A G9U C13G	1.06
U7G U8A G9U C13A	1.08
U7G U8A G9U C13U	1.3
U7G U8A G9U U11A	1.39
U7G U8A G9U U11C	1.08
U7G U8A G9U U11G	1.17
U7G U8A G9U C12G C13U	1.17
U7G U8A G9U C12G C13G	1.07
U7G U8A G9U C12G C13A	1.11
U7G U8A G9U U10A C12U C13A	1.07
U7G U8A G9U U10A C12U C13G	1.06
U7G U8A G9U U10A C12U C13U	1.07
U7G U8A G9U U10G U11A C13G	1.06
U7G U8A G9U U10G U11A C13A	1.06
U7G U8A G9U U10G U11A C13U	1.06
U7G U8A G9U U11C C12A	1.16
U7G U8A G9U U11C C12U	1.19

Variant	aptazyme ON/OFF ratio
U7G U8A G9U U11C C12G	1.11
U7G U8A G9U U10A C12G C13G	1.07
U7G U8A G9U U10A C12G C13U	1.04
U7G U8A G9U U10A C12G C13A	1.05
U7G U8A U10A C12U C13A	1.24
U7G U8A U10A C12U C13U	1.09
U7G U8A U10A C12U C13G	1.28
U7G U8A G9U U10A U11G C13U	1.09
U7G U8A G9U U10A U11G C13G	1.03
U7G U8A G9U U10A U11G C13A	1.09
U7G U8A G9U U10C U11A C12U	1.11
U7G U8A G9U U10C U11A C12G	1.13
U7G U8A G9U U10C U11A C12A	1.12
U7G U8A U10C C12G	1.46
U7G U8A U10C C12U	2.18
U7G U8A U10C C12A	1.5
U7G U8A G9U U10G C12A C13U	1.08
U7G U8A G9U U10G C12A C13G	1.03
U7G U8A G9U U10G C12A C13A	1.11
U7G U8A U10C	2.69
U7G U8A U10A	1.35
